Substitutions are numbered along the chain they refer to.

Assay [1] addresses T1, cyno LAG3, full length, stably expressed on 293F cells (cyno).
T1 construct: whole, on cells
Briefly: FACS on 293F-cyno LAG3 cells, 20 nM antibody. The protocol:
(§1) Briefly the antibodies were incubated with 2×10⁵ target cells at 4° C. for 1 hour. After washing, fluorescence labeled anti-mouse IgG 2nd antibody (Life Technologies) was added and incubated at 4° C. for 1 hour. Geometric median fluorescence intensity (MFI) was detected and EC₅₀ was calculated using GraphPad Prism9.0.

Assay [2] concerns the target T2, hFc tagged human LAG3 ECD recombinant protein (human, UniProt P18627 23-450).
T2 construct: range 23-450; also called biotin labelled hFc tagged human LAG3 ECD; not shown: human IgG Fc tag
T2 sequence (looked up): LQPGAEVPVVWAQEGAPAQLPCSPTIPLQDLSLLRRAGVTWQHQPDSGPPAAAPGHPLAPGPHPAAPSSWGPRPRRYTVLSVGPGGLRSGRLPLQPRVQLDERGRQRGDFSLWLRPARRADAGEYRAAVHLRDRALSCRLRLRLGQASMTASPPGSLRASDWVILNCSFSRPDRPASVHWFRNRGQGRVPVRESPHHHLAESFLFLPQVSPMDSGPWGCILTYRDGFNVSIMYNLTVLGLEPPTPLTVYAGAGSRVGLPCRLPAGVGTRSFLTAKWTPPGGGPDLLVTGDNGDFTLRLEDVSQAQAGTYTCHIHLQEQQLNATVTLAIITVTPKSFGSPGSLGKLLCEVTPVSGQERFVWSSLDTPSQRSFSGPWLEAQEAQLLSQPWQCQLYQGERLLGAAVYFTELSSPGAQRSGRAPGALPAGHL
The assay can be described thus: competitive ELISA: excess competitor, biotin hFc-LAG3 ECD, coated BAP-050. The method, then: (§2) Competitive ELISA assay was used for epitope binning of the purified hybridoma antibodies. […] After washing, HRP labeled anti-streptavidin (SA) 2nd antibody (Sigma) was added and incubated at 37° C. for 1 hour. Then, 100 μl/well of TMB solution (Biotechnology) was added. After incubation for 15 minutes at room temperature, the reaction was stopped by the addition of 50 μl of 1N HCl. OD 450 nm was read. Competition ratio was calculated.

In assay [3] the target is T2, hFc tagged human LAG3 ECD recombinant …. Briefly: competitive FACS: hFc-LAG3 ECD binding to Raji cells (MHC II). The protocol:
Competitive FACS assay was used to determine whether the purified hybridoma antibodies can block LAG3 and MHC II interaction. […] After washing, dye labeled anti-human Fc 2nd antibody (Sigma) was added and incubated at 37° C. for 1 hour. Fluorescence intensity was detected.

Assay [4] addresses T3, human LAG3, full length, stably expressed on cells (human, UniProt P18627 23-525).
T3 construct: whole, on cells; also called CHOK1-human LAG3
T3 sequence (looked up): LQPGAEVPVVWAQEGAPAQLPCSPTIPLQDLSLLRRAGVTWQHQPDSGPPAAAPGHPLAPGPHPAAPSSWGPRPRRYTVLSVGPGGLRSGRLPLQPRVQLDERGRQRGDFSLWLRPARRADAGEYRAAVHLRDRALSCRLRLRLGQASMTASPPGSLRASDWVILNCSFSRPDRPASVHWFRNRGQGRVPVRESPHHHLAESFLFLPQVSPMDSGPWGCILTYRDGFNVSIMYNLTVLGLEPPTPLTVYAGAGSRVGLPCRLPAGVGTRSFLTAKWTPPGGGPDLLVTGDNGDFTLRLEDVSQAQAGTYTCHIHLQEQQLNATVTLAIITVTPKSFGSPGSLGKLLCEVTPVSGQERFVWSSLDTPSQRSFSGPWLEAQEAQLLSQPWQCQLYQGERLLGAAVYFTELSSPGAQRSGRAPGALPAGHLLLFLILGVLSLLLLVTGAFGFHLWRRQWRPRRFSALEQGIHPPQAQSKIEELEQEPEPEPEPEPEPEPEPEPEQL
Briefly: FACS on 293F-human LAG3 cells. The method, then:
as §1

The target in assay [5] is T4, mouse LAG3, full length, stably expressed on CHOK1 cells (mouse, UniProt Q61790 24-521).
T4 construct: whole, on cells
T4 sequence (looked up): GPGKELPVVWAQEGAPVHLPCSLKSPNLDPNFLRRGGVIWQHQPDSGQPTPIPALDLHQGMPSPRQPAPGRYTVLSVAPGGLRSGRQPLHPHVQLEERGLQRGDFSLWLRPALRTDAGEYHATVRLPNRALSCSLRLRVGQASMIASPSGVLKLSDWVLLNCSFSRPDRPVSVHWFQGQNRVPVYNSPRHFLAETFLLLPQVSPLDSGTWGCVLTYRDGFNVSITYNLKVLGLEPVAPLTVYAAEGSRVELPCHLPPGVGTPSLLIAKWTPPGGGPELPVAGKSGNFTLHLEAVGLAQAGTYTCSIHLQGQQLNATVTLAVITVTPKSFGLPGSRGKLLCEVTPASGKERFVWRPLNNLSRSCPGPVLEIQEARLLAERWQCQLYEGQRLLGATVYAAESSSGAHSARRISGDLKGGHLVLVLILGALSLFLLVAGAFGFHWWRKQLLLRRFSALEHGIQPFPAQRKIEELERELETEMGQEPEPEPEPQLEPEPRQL
Briefly: FACS on CHOK1 cells expressing mouse LAG3. The protocol: as §1

Assay [6] has as its target T5, hFc tagged human LAG3 D1-D2 recombinant protein (human, UniProt P18627 23-261).
T5 construct: range 23-261; generated by Chempartner; also called hLAG3 D1-D2; not shown: human IgG Fc tag
T5 sequence (looked up): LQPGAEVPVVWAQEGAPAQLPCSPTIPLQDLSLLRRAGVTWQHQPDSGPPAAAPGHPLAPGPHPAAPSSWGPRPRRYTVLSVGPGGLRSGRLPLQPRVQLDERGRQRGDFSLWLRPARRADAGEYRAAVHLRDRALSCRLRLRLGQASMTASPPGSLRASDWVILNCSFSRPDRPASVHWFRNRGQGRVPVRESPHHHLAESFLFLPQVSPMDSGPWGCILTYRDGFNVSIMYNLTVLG
Briefly: ELISA, coated hFc-hLAG3 D1-D2. The method, then:
Binding activity of the purified hybridoma antibodies against human LAG3 was detected by ELISA assay using hFc tagged human LAG3 D1-D2 recombinant protein. Briefly the antibodies were incubated with ELISA microplate coated antigens at 37° C. for 1 hour. After washing, horseradish peroxidase (HRP) labeled anti-human IgG 2nd Ab (Sigma) was added and incubated at 37° C. for 1 hour. Then, 100 μl/well of TMB solution (Biotechnology) was added. After incubation for 15 minutes at room temperature, the reaction was stopped by the addition of 50 μl of 1N HCl. OD 450 nm was read and EC₅₀ was calculated using GraphPad Prism9.0.

In assay [7] the target is T2, hFc tagged human LAG3 ECD recombinant …. The assay can be described thus: competitive ELISA: excess competitor, biotin hFc-LAG3 ECD, coated BMS-986016. The method, then: as §2

B1: Antibody 035 (antibody, V domains shown)
VH: QVQLQQSGAELARPGASVKLSCKASGYSFTSYGINWVKQRTGQGLEWIGEIYPRSGNTYYNEKFKDKATLTADKSSSTAYMELRSLTSEDSAVYFCARGGTYDGYYYAMDFWGQGTSVTVSS
VL: DIVLTQSPASLAVSLGQRATISCRASESVDNFGSSFLHWYQQKPGQAPKLLIYRASNLESGIPARFSGSGSRTDFTLTINPVETDDVATYYCQQVNKDPRTFGGGTKLEIK
notes: mouse hybridoma antibody
As to B1, in assay [1], the “MFI at 20 nM” value was determined as 155 MFI. In addition, the “% competition” value in assay [2] is 91.9%; in assay [7], 21.7%. Besides, in assay [3], the IC50 was found to be 5 nM. Besides, the “TOP blocking (%)” value in assay [3] was 99.2%. Moreover, the EC50 is 0.66 nM in assay [4] and 0.06 nM in assay [6]. Besides, in assay [5], the binding result is recorded as “no binding”.

B2: Antibody 057 (antibody, V domains shown)
VH: B1 VH with Y27F, F64L, D66G, K67E, K74R, F111Y
VL: B1 VL with D1N, L37M, S67G, R72G, N80D
notes: mouse hybridoma antibody
On to B2, for which the “MFI at 20 nM” value in assay [1] came to 83.4 MFI. Further, the “% competition” value in assay [2] turned out to be 87.7%; in assay [7] it was 29.3%. Further, the IC50 in assay [3] came out at 5.1 nM. For the same molecule, the “TOP blocking (%)” value in assay [3] is 87.6%. The EC50 in assay [4] was 1.04 nM; in assay [6] it was 0.02 nM. The binding result in assay [5] was “no binding”.

B3: Antibody 047 (antibody, V domains shown)
VH: B1 VH with I34V, K63R, K65G, L83I, F111Y
VL: B1 VL with L37M
notes: mouse hybridoma antibody
Turning to B3, in assay [1], the “MFI at 20 nM” value was 129 MFI. Besides, the “% competition” value in assay [2] is 87.4%; in assay [7], 8.9%. Moreover, the 50% inhibitory concentration (IC50) in assay [3] worked out at 7.7 nM. The “TOP blocking (%)” value in assay [3] was determined as 82.7%. Further, the values for the EC50 in assay [4] and in assay [6] were 1.14 nM and 0.04 nM, respectively. The binding result in assay [5] is “no binding”.

B4: Antibody 027 (antibody, V domains shown)
VH: EVKILQSGGGLVQPGGSLKLSCAASGIDFSRYWMSWVRRTPGKGLEWIGEINPDSSTINYAPSLKDKFIISRDNAKNTLYLQMSKVRSEDTALYYCARLGIIPTYHYGSSGYYYAMDYWGQGTSVTVSS
VL: DVLMTQTPLSLPVSLGDRASISCRSSQTIVHGNGHTSLEWYLQKPGQSPQLLIYKVSNRFSGVPDRFSASGSGTDFTLTISRVEAEDLGVYYCFQVSHVPYTFGGGTKLEIK
notes: mouse hybridoma antibody
As to B4, in assay [1], the “MFI at 20 nM” value came to 132 MFI. In addition, the “% competition” value came out at 85.1% in assay [2] and 7.2% in assay [7]. Besides, in assay [3], the IC50 is 5.4 nM. In assay [3], the “TOP blocking (%)” value turned out to be 97.2%. Further, the concentration giving a half-maximal response (EC50) is 2.38 nM in assay [4] and 0.05 nM in assay [6]. For the same molecule, the binding result in assay [5] is reported as “no binding”.

B5: Antibody 033 (antibody, V domains shown)
VH: EVQLQQSGAELVRPGASVKLSCTASDFNIKDDYIHWVKQRPEQGLEWIGWIDLENGDTEYASKFQGKATITADTSSNTAYLQLSSLTSEDTAVYYCTTKGSHWGQGTLVTVSA
VL: DVVMTQIPLSLPVSLGDQASISCRSSQSLVYSNGNTYLNWYLQKPGQSPKLLIHKVSNRFSGVPDRFSGSGSGTDFTLKISRVEAEDLGVYFCSQSTHVPYTFGGGTKLEIR
notes: mouse hybridoma antibody
As for B5, the “MFI at 20 nM” value in assay [1] amounted to 83.4 MFI. Also, the entries for the “% competition” value in assay [2] and in assay [7] were 3.8% and 92.5%, respectively. Moreover, the IC50 in assay [3] is 4.8 nM. Moreover, the “TOP blocking (%)” value in assay [3] is 98.8%. The EC50 was found to be 2.33 nM in assay [4] and 0.07 nM in assay [6]. Moreover, the binding result in assay [5] is “no binding”.

B6: Antibody 024 (antibody, V domains shown)
VH: EVQLQQSGPELVKPGASVKISCKASGYTFTDYYMNWVKQSHGKRLEWIGDIDPNNGGTSYNQKFKGKATLTVDKSSSSAYMDLRSLTSEDSAVYYCARAGSYYYGSSYVEYFDVWGTGTTVTVSS
VL: DIQMTQSPASLSASVGETVTITCRASGNIHNYLAWYQQKQGASPQLLVYNAKTLADGVPSRFSGSGSGTEFSLKINSLQPEDFGNYYCQHFWNTPYTFGGGTKLEIK
notes: mouse hybridoma antibody
On to B6, for which the “MFI at 20 nM” value in assay [1] came to 154 MFI. In addition, the “% competition” value in assay [2] is -0.5%; in assay [7], 73%. In assay [3], the IC50 came out at 5.5 nM. In addition, in assay [3], the “TOP blocking (%)” value came out at 81%. Further, the EC50 in assay [4] worked out at 2.04 nM; in assay [6], 0.05 nM. Also, in assay [5], the binding result is “no binding”.

B7: Antibody 023 (antibody, V domains shown)
VH: QIQLVQSGPVLKKPGETVKISCKASGYTFTESPMNWVKQAPGRGFKWMGMIYTDTGEPTYAEEFKGRFAFSLETSASTAYLQINNLKSEDTATYFCVSDYGSILYWYFDVWGTGTTVTVSS
VL: DIVMTQSHKFMSTSVGDRVSITCKASQDVSTAVAWYQQTPGQSPKLLIYSASYRYTGVPDRFTGSGSGTDFTFTISSVQAEDLAVYYCQQHYNSPPTFGAGTKLELK
notes: mouse hybridoma antibody
For the molecule B7, in assay [1], the “MFI at 20 nM” value is 125 MFI. Further, the figures for the “% competition” value in assay [2] and in assay [7] were -2.7% and 43.7%, respectively. The IC50 in assay [3] was found to be 4.9 nM. The “TOP blocking (%)” value in assay [3] was 84.2%. Further, the EC50 turned out to be 2.65 nM in assay [4] and 0.05 nM in assay [6]. Also, in assay [5], the binding result is given as “no binding”.

B8: Antibody 029 (antibody, V domains shown)
VH: DVKLVESGEDLVKPGGSLKLSCAASGFTFSSYAMSWVRQTPEKRLEWVAYVTSGGDYIYYADTVKGRFTISRDDVRNTLYLQMSSLKSEDTAMYYCTRVAYDYEWYFDVWGTGAPVTVSS
VL: B7 VL with S30T, T39K, P59S, V85L, Y92D, N93S, P96W, A100G, L106I
notes: mouse hybridoma antibody
For the molecule B8, in assay [1], the “MFI at 20 nM” value came out at 35.6 MFI. The results for the “% competition” value in assay [2] and in assay [7] were 23.5% and 20.3%, respectively. Further, the IC50 in assay [3] worked out at 4.6 nM. Besides, the “TOP blocking (%)” value in assay [3] came to 90.7%. Moreover, the EC50 was determined as 4.58 nM in assay [4] and 0.06 nM in assay [6]. For the same molecule, the binding result in assay [5] is listed as “no binding”.

For the origin of these results see patent US20250313625A1 (ELPISCIENCE SUZHOU BIOPHARMA, published 2025).
